B1: anti-beta-DG antibody derived from hybridoma clone AS19 (antibody, V domains shown)
VH: QVQLQQSGPELVKPGASVKMSCKASGFTFTDSVISWVKQRTGQGLEWIGEIYPGSGSIYYNEKFKGKATLTADKSSNTAYMQLRSLTSEDSAVYFCAMRRSYWGQGTLVTVSA
VL: DVLMTQTPLSLPVSLGDQASISCRSSQSIVHSNGNTYLEWYLQKPGQSPKLLIYKVSNRFSGVPDRFSGSGSGTDFTLKISRVEAEDLGVYYCFQGSHVPLTFGAGTKLELK
notes: Hybridoma monoclonal antibody (detected with anti-mouse IgG)
B2: triAb 3407 (bispecific antibody)
light 1: EIVLTQSPDFLSVTPKEKVTLTCRASQSISNNLHWYQQKSDQSPKLLIKYASQSISGIPSRFSGSGSGTDFTLTINSVEAEDAATYFCQQSKSWPRTFGGGTKLEIKDKTHTEIVLTQSPDFLSVTPKEKVTLTCRASQSISNNLHWYQQKSDQSPKLLIKYASQSISGIPSRFSGSGSGTDFTLTINSVEAEDAATYFCQQSKSWPRTFGGGTKLEIKDKTHTRTVAAPSVFIFPPSDEQLKSGTASVVCLLNNFYPREAKVQWKVDNALQSGNSQESVTEQDSKDSTYSLSSTLTLSKADYEKHKVYACEVTHQGLSSPVTKSFNRGEC
heavy 1: EVQLVESGGGLVKPGGSLRLSCAASGFTFSSYTMSWVRQAPGKGLEWVASISSSGSNTYYPDSVKGRFTISRDNAKNNLYLQMNSLRAEDTALYYCARFDYGSSLDSWGQGTLLTVSSDKTHTEVQLVESGGGLVKPGGSLRLSCAASGFTFSSYTMSWVRQAPGKGLEWVASISSSGSNTYYPDSVKGRFTISRDNAKNNLYLQMNSLRAEDTALYYCARFDYGSSLDSWGQGTLLTVSSDKTHTASTKGPSVFPLAPSSKSTSGGTAALGCLVKDYFPEPVTVSWNSGALTSGVHTFPAVLQSSGLYSLSSVVTVPSSSLGTQTYICNVNHKPSNTKVDKKVEPKSCDKTHTCPPCPAPELLGGPSVFLFPPKPKDTLYITREPEVTCVVVDVSHEDPEVKFNWYVDGVEVHNAKTKPREEQYNNASRVVSVLTVLHQDWLNGKEYKCKVSNKALPAPIEKTISKAKGQPREPQVYTLPPCRDELTKNQVSLWCLVKGFYPSDIAVEWESNGQPENNYKTTPPVLDSDGSFFLYSKLTVDKSRWQQGNVFSCSVMHEALHNHYTQKSLSLSPG
heavy 2: QVQLVQSGAEVVKPGSSVKVSCEASGFTFTDSVITWVRQRPGQGLEWIGEIYPGSGNFYYNEKFQGRVTITADKSTSTAYMELSSLRSEDTAVYFCAMRRSSWGQGTLVTVSSASTKGPSVFPLAPSSKSTSGGTAALGCLVKDYFPEPVTVSWNSGALTSGVHTFPAVLQSSGLYSLSSVVTVPSSSLGTQTYICNVNHKPSNTKVDKKVEPKSCDKTHTCPPCPAPELLGGPSVFLFPPKPKDTLYITREPEVTCVVVDVSHEDPEVKFNWYVDGVEVHNAKTKPREEQYNNASRVVSVLTVLHQDWLNGKEYKCKVSNKALPAPIEKTISKAKGQPREPQVCTLPPSRDELTKNQVSLSCAVKGFYPSDIAVEWESNGQPENNYKTTPPVLDSDGSFFLVSKLTVDKSRWQQGNVFSCSVMHEALHNRFTQKSLSLSPG
light 2: DVVMTQTPLSLSVTPGQPASISCKSSQTIVHSNSKTYLEWYLQKPGQSPQLLIYKVSSRFSGVPDRFSGSGSGTDFTLKISRVEAEDVGVYYCFQGSHVPLTFGQGTKLEIKRTVAAPSVFIFPPSDEQLKSGTASVVCLLNNFYPREAKVQWKVDNALQSGNSQESVTEQDSKDSTYSLSSTLTLSKADYEKHKVYACEVTHQGLSSPVTKSFNRGEC
notes: knob-in-hole, NNAS, YTE and RF variants

What was measured:
[1] = biological target: T1, Fabrazyme (agalsidase beta, Genzyme) (UniProt P06280 32-429); experiment: dot blot: protein dotted on nitrocellulose (250 to .016 ng), probed with AS19
T1 construct: Negative control protein on the dot blots
T1 sequence (looked up): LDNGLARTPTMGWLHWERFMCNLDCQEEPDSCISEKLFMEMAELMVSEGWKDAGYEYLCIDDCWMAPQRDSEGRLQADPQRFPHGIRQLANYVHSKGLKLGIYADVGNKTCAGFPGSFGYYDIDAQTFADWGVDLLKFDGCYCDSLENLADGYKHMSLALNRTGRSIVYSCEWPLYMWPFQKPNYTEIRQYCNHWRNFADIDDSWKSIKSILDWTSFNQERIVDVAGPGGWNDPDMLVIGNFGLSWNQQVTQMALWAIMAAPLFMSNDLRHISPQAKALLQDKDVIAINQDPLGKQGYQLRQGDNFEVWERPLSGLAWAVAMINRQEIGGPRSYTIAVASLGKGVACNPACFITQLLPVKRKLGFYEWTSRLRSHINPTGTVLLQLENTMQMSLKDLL

[2] = biological target: T2, murine beta-dystroglycan extracellular domain (mbeta-DG ECD), HPC4 tagged (mouse, UniProt Q62165 652-746); experiment: SPR (Biacore) kinetics, antibody as ligand on the chip, sample mBDg in flow, fit 1:1 Binding
T2 construct: range 652-746; Made in E. coli as MBP fusion; MBP cleaved off with TEV protease; also called mbeta-DG-HPC4; murine beta-DG; not shown: C-terminal HPC4 tag
T2 sequence (looked up): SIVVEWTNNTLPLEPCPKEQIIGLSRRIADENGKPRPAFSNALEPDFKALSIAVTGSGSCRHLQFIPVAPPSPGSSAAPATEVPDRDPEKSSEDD

[3] = biological target: T2, murine beta-dystroglycan extracellular …; experiment: SPR (Biacore) kinetics; mAb immobilized, mBeta-DG in flow
[4] = biological target: T3, human beta-dystroglycan extracellular domain (soluble) (human, UniProt Q14118 654-749); experiment: SPR (Biacore) kinetics; mAb immobilized, hBeta-DG in flow
T3 construct: extracellular domain; The expression construct of soluble human beta-DG is not described (only the mouse one); One entry is used for all soluble human beta-DG, also for the crystal structure; also called hBeta-DG; hbeta-DG
T3 sequence (looked up): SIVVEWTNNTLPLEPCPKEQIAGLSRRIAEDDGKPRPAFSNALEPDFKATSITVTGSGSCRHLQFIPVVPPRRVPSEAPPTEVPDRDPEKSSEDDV

[5] = biological target: T3, human beta-dystroglycan extracellular …; experiment: dual binding sandwich ELISA on coated human beta-DG, read out through LG4/5-mFc (5 ug/mL)
Description: A dual binding sandwich ELISA was performed by coating Thermo Nunc Immobilized SA 96 well plates with either 2 ug/mL of biotinylated N′Avi-HPC4-human LG4/5 or biotinylated human-beta DG-HPC4-Avi-C′. After overnight incubation at 4° C., the plates were blocked with PBS+1% BSA+0.1% Tween for 1 hour at room temperature. After washing (BioTek ELx405 Select CW) with PBS, the trivalent or parental antibodies were added to the plate started at 8 ug/mL and a 2-fold dilution was performed across the plate, antibody was incubated for 1 hour at room temperature. After washing, the second antigen of beta-DG-mFc (FIG. 1A) or LG4/5-mFc was added at 5 ug/mL. Following the second antigen, a secondary antibody of donkey anti-mouse (Jackson ImmunoResearch) at a 1:2,000 dilution was added for 30 minutes. ABTS was resuspended in ABTS buffer (Roche) and added to the wells for detection. Resulting signal was read with the Perkin Elmer EnVision Multimode Plate Reader at 405 nm.
To show binding of the triAbs to both antigens, a dual binding sandwich ELISA was performed as described above using 2 ug/mL of biotinylated N′Avi-HPC4-human LG4/5 (FIG. 14A) or biotinylated human-beta DG-HPC4-Avi-C′ (FIG. 14B).

[6] = biological target: T3, human beta-dystroglycan extracellular …; experiment: SPR, antibody on Protein G chip, beta-DG in flow, 1:1 model (table title says laminin-2; paragraph 445 says human beta-DG)
Description: Data was evaluated with a 1:1 binding model using the BIAevaluation software.
SPR was used as described above to analyze the kinetics of triAb binding to laminin-2 (Table N) or beta-DG (Table O).

| Binder | binding result [1] | koff [2] | kon [2] | Kd [3] | Kd [4] | EC50 (read off the curve) [5] | Kd [6] | koff [6] | kon [6] |
| --- | --- | --- | --- | --- | --- | --- | --- | --- | --- |
| B1 | no binding (tested: 250 ng) | 0.000667 s⁻¹ | 110000 M⁻¹ s⁻¹ | 3.38 nM | 2.06 nM |  |  |  |  |
| B2 |  |  |  |  |  | ~0.1 µg/mL | 2.08 nM | 0.00326 s⁻¹ | 1.57e+06 M⁻¹ s⁻¹ |

— patent publication US20180237511A1 (Sanofi, published 2018)
